From paper PMC5700162, “Structural insights into the committed step of bacterial phospholipid biosynthesis” (Nature Communications, 2017) come the findings set out here.

In general, Km refers to the concentration of substrate that gives half-maximal velocity. Broadly, the kcat is the number of substrate molecules converted per active site and unit of time at saturation.

Series [1] addresses T1, aaPlsY (Aquifex aeolicus, UniProt O66905). Also noted: gene plsY. The note with it: 7.8 MAG LCP with 0.4 M Na2HPO4, pH 7.0; three phosphates from phosphate hole to phosphate clamp.
The target in series [2] is T1, aaPlsY. The experiment in a line: coupled MDCC-PBP Pi-biosensor fluorescence assay in lipid cubic phase (monoolein). The class given is biochemical. Also noted: gene plsY; full length, 192 residues, monomer, codon-optimised gene, E. coli BL21(DE3); assays: C-terminal His8 tag (p3EC); crystals: C-terminal His-eGFP removed by 3C protease; DDM-purified, reconstituted in lipid cubic phase. The note with it: co-substrate 30 mM glycerol phosphate; pH 8.0, 30 °C; 0-2 mol% 16:0-P in the lipid phase.

Substrate in series [3]: O=P(O)(O)OC[C@H](O)CO
The series is described as above. The class given is biochemical, Aquifex aeolicus. The note with it: co-substrate 1.8 mol% 16:0-P, pH 8.0, 30 °C, 0-50 mM G3P.

Substrate in series [4]: O=P(O)(O)OC[C@H](O)CO
The series is described as above. The class given is biochemical, Aquifex aeolicus. The note with it: co-substrate 3.3-5.2 mol% 16:0-P, pH 8.0, 30 °C, no technical replicates. An excerpt:
coupled MDCC-PBP Pi-biosensor fluorescence assay in lipid cubic phase (monoolein) on […]

Changes are numbered by the printed parent chain. Names may count otherwise.

As to `O=P(O)(O)O` [Pi, inorganic phosphate], the “X-ray crystal structure, 1.83 Å” value at aaPlsY [1] is “three phosphates are trapped in a positive patch stretching from the phosphate hole”.

`CCCCCCCCCCCCCCCC(=O)OP(=O)(O)O` [16:0-P, palmitoyl phosphate]: the “apparent Km” value on aaPlsY [2] is listed as 0.1 mol% (relative to monoolein).

B1: aaPlsY (Aquifex aeolicus VF5) (protein)
chain: MKALFLVIFAYLLGSITFGEVIAKLKGVDLRNVGSGNVGATNVTRALGKKYGVLVFFLDFLKGFIPALIAVKSFGIDSWVLTFTGLASVLGHMYPVFFGFKGGKGVATALGVVFAVSPSVALFSFLVWLGIFLWKRYVSLASITATISAFLFLFVAGYPVNVLFMAIVIGALIIYRHRENINRLLTGREHRF
notes: full length, 192 residues, monomer, codon-optimised gene, E. coli BL21(DE3); assays: C-terminal His8 tag (p3EC); crystals: C-terminal His-eGFP removed by 3C protease; DDM-purified, reconstituted in lipid cubic phase
For B1, in series [3], the Michaelis constant (Km) worked out at 1.39 mM and the catalytic constant (kcat) amounted to 13.4 s⁻¹.

B2: aaPlsY (Aquifex aeolicus VF5; K104A) (protein)
chain: B1 chain with K104A
notes: as for B1
Take B2: in series [4], the Michaelis-Menten constant (Km) is 6.58 mM and the turnover number (kcat) was 1 s⁻¹.

B3: aaPlsY (Aquifex aeolicus VF5; N37A) (protein)
chain: B1 chain with N37A
notes: as for B1
As to B3, in series [4], the Michaelis-Menten constant (Km) is 3.04 mM and the kcat was determined as 2.49 s⁻¹.

B4: aaPlsY (Aquifex aeolicus VF5; T41A) (protein)
chain: B1 chain with T41A
notes: as for B1
As for B4, in series [4], the Km is 0.43 mM and the turnover number (kcat) worked out at 0.64 s⁻¹.

B5: aaPlsY (Aquifex aeolicus VF5; E189A) (protein)
chain: B1 chain with E189A
notes: as for B1
With B5, in series [4], the Km turned out to be 5.79 mM and the kcat is 18.5 s⁻¹.

B6: aaPlsY (Aquifex aeolicus VF5; S35A) (protein)
chain: B1 chain with S35A
notes: as for B1
Regarding B6, in series [4], the Michaelis constant (Km) was found to be 13.75 mM and the kcat is 0.64 s⁻¹.

B7: aaPlsY (Aquifex aeolicus VF5; H92A) (protein)
chain: B1 chain with H92A
notes: as for B1
For the molecule B7, in series [4], the Km came out at 2.64 mM and the turnover number (kcat) stood at 2.37 s⁻¹.

B8: aaPlsY (Aquifex aeolicus VF5; N180A) (protein)
chain: B1 chain with N180A
notes: as for B1
For the molecule B8, in series [4], the Michaelis constant (Km) is recorded as 26.31 mM and the kcat was determined as 0.62 s⁻¹.

B9: aaPlsY (Aquifex aeolicus VF5; H177A) (protein)
chain: B1 chain with H177A
notes: as for B1
In the case of B9, in series [4], the Km is on record as 9.24 mM and the kcat turned out to be 0.88 s⁻¹.

B10: aaPlsY (Aquifex aeolicus VF5; R45A) (protein)
chain: B1 chain with R45A
notes: as for B1
As to B10, in series [4], the Michaelis-Menten constant (Km) turned out to be 50.46 mM and the catalytic constant (kcat) came out at 0.15 s⁻¹.

B11: aaPlsY (Aquifex aeolicus VF5; S142A) (protein)
chain: B1 chain with S142A
notes: as for B1
In the case of B11, in series [4], the Km is 2.89 mM and the catalytic constant (kcat) stood at 4.29 s⁻¹.
